What all share (conditions): other: substrate of Bacillus sphaericus cyclodextrinase; pH 7.5; 40.0 °C
Substrate in data set [1]: OC[C@H]1O[C@H](O[C@H]2[C@H](O)[C@@H](O)[C@@H](O[C@H]3[C@H](O)[C@@H](O)[C@@H](O[C@H]4[C@H](O)[C@@H](O)[C@@H](O[C@H]5[C@H](O)[C@@H](O)C(O)O[C@@H]5CO)O[C@@H]4CO)O[C@@H]3CO)O[C@@H]2CO)[C@H](O)[C@@H](O)[C@@H]1O
Kind of data set: Reaction rate parameters of the present enzyme for cyclodextrins and maltooligosaccharides. Format: biochemical.

Substrate in data set [2]: OC[C@H]1O[C@H](O[C@H]2[C@H](O)[C@@H](O)[C@@H](O[C@H]3[C@H](O)[C@@H](O)[C@@H](O[C@H]4[C@H](O)[C@@H](O)[C@@H](O[C@H]5[C@H](O)[C@@H](O)[C@@H](O[C@H]6[C@H](O)[C@@H](O)[C@@H](O[C@H]7[C@H](O)[C@@H](O)C(O)O[C@@H]7CO)O[C@@H]6CO)O[C@@H]5CO)O[C@@H]4CO)O[C@@H]3CO)O[C@@H]2CO)[C@H](O)[C@@H](O)[C@@H]1O
The data set is described as above. Format: biochemical.

Substrate in data set [3]: OC[C@H]1O[C@@H]2O[C@H]3[C@H](O)[C@@H](O)[C@@H](O[C@H]4[C@H](O)[C@@H](O)[C@@H](O[C@H]5[C@H](O)[C@@H](O)[C@@H](O[C@H]6[C@H](O)[C@@H](O)[C@@H](O[C@H]7[C@H](O)[C@@H](O)[C@@H](O[C@H]1[C@H](O)[C@H]2O)O[C@@H]7CO)O[C@@H]6CO)O[C@@H]5CO)O[C@@H]4CO)O[C@@H]3CO
Described as above. It counts as biochemical.

Substrate in data set [4]: OC[C@H]1O[C@@H]2O[C@H]3[C@H](O)[C@@H](O)[C@@H](O[C@H]4[C@H](O)[C@@H](O)[C@@H](O[C@H]5[C@H](O)[C@@H](O)[C@@H](O[C@H]6[C@H](O)[C@@H](O)[C@@H](O[C@H]7[C@H](O)[C@@H](O)[C@@H](O[C@H]8[C@H](O)[C@@H](O)[C@@H](O[C@H]1[C@H](O)[C@H]2O)O[C@@H]8CO)O[C@@H]7CO)O[C@@H]6CO)O[C@@H]5CO)O[C@@H]4CO)O[C@@H]3CO
Nature of the data set: purified protein, by the assay type.

Substrate in data set [5]: OC[C@H]1O[C@H](O[C@H]2[C@H](O)[C@@H](O)[C@@H](O[C@H]3[C@H](O)[C@@H](O)[C@@H](O[C@H]4[C@H](O)[C@@H](O)C(O)O[C@@H]4CO)O[C@@H]3CO)O[C@@H]2CO)[C@H](O)[C@@H](O)[C@@H]1O
Kind of data set: purified protein, by the assay type.

Substrate in data set [6]: OC[C@H]1O[C@H](O[C@H]2[C@H](O)[C@@H](O)[C@@H](O[C@H]3[C@H](O)[C@@H](O)[C@@H](O[C@H]4[C@H](O)[C@@H](O)[C@@H](O[C@H]5[C@H](O)[C@@H](O)[C@@H](O[C@H]6[C@H](O)[C@@H](O)C(O)O[C@@H]6CO)O[C@@H]5CO)O[C@@H]4CO)O[C@@H]3CO)O[C@@H]2CO)[C@H](O)[C@@H](O)[C@@H]1O
Kind of data set: purified protein, by the assay type.

Substrate in data set [7]: OC[C@H]1O[C@@H]2O[C@H]3[C@H](O)[C@@H](O)[C@@H](O[C@H]4[C@H](O)[C@@H](O)[C@@H](O[C@H]5[C@H](O)[C@@H](O)[C@@H](O[C@H]6[C@H](O)[C@@H](O)[C@@H](O[C@H]7[C@H](O)[C@@H](O)[C@@H](O[C@H]8[C@H](O)[C@@H](O)[C@@H](O[C@H]9[C@H](O)[C@@H](O)[C@@H](O[C@H]1[C@H](O)[C@H]2O)O[C@@H]9CO)O[C@@H]8CO)O[C@@H]7CO)O[C@@H]6CO)O[C@@H]5CO)O[C@@H]4CO)O[C@@H]3CO
Kind of data set: purified protein, by the assay type.

Here are results for 1 protein from patent US5238825A, “Preparation and use of a cyclodextrinase for preparing maltooligosaccharides” (Kikkoman Corporation, priority 1989, dated 1993).

B1: cyclodextrinase (Lysinibacillus sphaericus) (protein)
chain: MIMLEAVYHRMGQNWSYAYNDSTLHIRIRTKRDNVPRIDLHCGEKYDPEKYKETIPMERMASDGLFDYWQAAVQPRYRRLVYYFALHSDNGDAVYFMEKGFFDQPPKVMYEGLFDFPYLNRQDVHTPPAWVKEAIFYQIFPERFANGDPSNDPEGVQEWGGTPSAGNFFGGDLQGVIDHLDYLSDLGVNALYFNPLFAATTNHKYDTADYMKIDPQFGTNEKLKELVDACHARGMRVLLDAVFNHCGHTFPPFVDVLNNGLNSRYADWFHVREWPLRVVDGIPTYDTFAFEPIMPKLNTGNEEVKAYLLNVGRYWLEEMGLDGWRLDVANEVDHQFWREFRSEIKRINPSAYILGEIMHDSMPWLQGDQFDAVMNYPFTNILLNFFARRLTNAAEFAQAIGTQLAGYPQQVTEVSFNLLGSHDTTRLLTLCSGNVERMKLATLFQLTYQGTPCIYYGDEIGMDGEYDPLNRKCMEWDKSKQNTELLAFFRSMISLRKAHPALRGSGLRFLPVLEHPQLLVYERWDDNERFLIMLNNEDAPVNVVIPAAQPGASWRTVNGEPCAVVEESSIQAALPPYGYAILHAPIAGTAE
notes: is cultured in a medium to yield and accumulate said cyclodextrinase, and this enzyme is collected from the culture; made in house; host or cells: Bacillus sphaericus E-244 (FERM BP-2458), the natural wild-type producer strain; not recombinant
As a reminder, the Km is the substrate concentration at which the rate is half of its maximum. With B1, the Km in data set [1] was determined as 950 µM; in data set [2] it was 690 µM; in data set [3], 710 µM; in data set [4], 380 µM; in data set [5] it was 1540 µM; in data set [6], 1110 µM. In addition, the Km in data set [7] came to 1430 µM.
